In publication PMC9948308, “DnaK and DnaJ proteins from Hsp70/40 family are involved in Rubisco biosynthesis in Synechocystis sp. PCC6803 and sustain the enzyme assembly in a heterologous system” (BMC Plant Biology, 2023):

B1: RbcL (Rubisco large subunit) from Synechocystis sp. PCC6803, unfolded, isolated from inclusion bodies (natural protein, UniProt P54205 1-470, looked up)
chain: MVQAKAGFKAGVQDYRLTYYTPDYTPKDTDLLACFRMTPQPGVPAEEAAAAVAAESSTGTWTTVWTDNLTDLDRYKGRCYDLEAVPNEDNQYFAFIAYPLDLFEEGSVTNVLTSLVGNVFGFKALRALRLEDIRFPVALIKTFQGPPHGITVERDKLNKYGRPLLGCTIKPKLGLSAKNYGRAVYECLRGGLDFTKDDENINSQPFMRWRDRFLFVQEAIEKAQAETNEMKGHYLNVTAGTCEEMMKRAEFAKEIGTPIIMHDFFTGGFTANTTLARWCRDNGILLHIHRAMHAVVDRQKNHGIHFRVLAKCLRLSGGDHLHSGTVVGKLEGERGITMGFVDLMREDYVEEDRSRGIFFTQDYASMPGTMPVASGGIHVWHMPALVEIFGDDSCLQFGGGTLGHPWGNAPGATANRVALEACVQARNEGRNLAREGNDVIREACRWSPELAAACELWKEIKFEFEAMDTL
notes: Ribulose-1,5-bisphosphate carboxylase/oxygenase large subunit (RbcL), Synechocystis sp; PCC6803; used denatured/unfolded; Used as an unfolded protein diluted from GdnHCl; also called unfolded RbcL; denatured RbcL peptide; source: E. coli BL21 (DE3), purified from inclusion bodies, solubilized in 4 M GdnHCl

Tests used:
[1] = molecular target: B1; test: MST; His-tagged chaperone labelled with RED-tris-NTA (4 µM or 200 nM) and unfolded RbcL in PBS-T (0.1% Tween 20), with ATP; Monolith NT.115 pico; 1:1 binding model; settings: both partners purified
[2] = molecular target: T1, RbcL (Rubisco large subunit) from Synechocystis sp. PCC6803, unfolded, isolated from inclusion bodies (Synechocystis sp. PCC6803, UniProt P54205 1-470); test: MST; with ATP
T1 chain: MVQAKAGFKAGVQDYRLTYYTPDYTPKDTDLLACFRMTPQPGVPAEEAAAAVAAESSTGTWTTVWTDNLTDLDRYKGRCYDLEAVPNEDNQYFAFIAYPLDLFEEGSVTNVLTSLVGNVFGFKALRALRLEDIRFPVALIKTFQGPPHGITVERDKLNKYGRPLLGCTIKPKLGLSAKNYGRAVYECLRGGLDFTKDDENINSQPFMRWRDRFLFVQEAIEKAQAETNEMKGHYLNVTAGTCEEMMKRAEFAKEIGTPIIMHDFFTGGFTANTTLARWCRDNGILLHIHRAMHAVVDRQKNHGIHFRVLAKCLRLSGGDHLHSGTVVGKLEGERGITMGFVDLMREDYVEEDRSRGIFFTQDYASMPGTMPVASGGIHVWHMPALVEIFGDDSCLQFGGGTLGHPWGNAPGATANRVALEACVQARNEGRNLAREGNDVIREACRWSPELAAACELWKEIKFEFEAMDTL

[3] = molecular target: T2, DnaK2 together with DnaJ Sll1384 (both tested chaperones, with ATP) in the MST titration (Synechocystis sp. PCC6803, UniProt P22358 1-636; P74157 1-314); test: MST; His-tagged chaperone labelled with RED-tris-NTA (4 µM or 200 nM) and unfolded RbcL in PBS-T (0.1% Tween 20), with ATP; Monolith NT.115 pico; 1:1 binding model; settings: both partners purified
T2 construct: DnaK2, Synechocystis sp; PCC6803, as the chain of m3; DnaJ Sll1384, Synechocystis sp; PCC6803, as the chain of m2; also called DnaK + DnaJ; source: E. coli Lemo21, each purified (Ni-NTA; DnaK2 also Superdex 200), mixed

[4] = molecular target: T3, DnaK2 from Synechocystis sp. PCC6803, His-tagged (Synechocystis sp. PCC6803, UniProt P22358 1-636, RED-tris-NTA dye on the His-tag (MST only)); test: as above; settings: both partners purified
T3 construct: Hsp70 chaperone DnaK2, Synechocystis sp; PCC6803; gene amplified from total DNA with primers Fwdnak2 (NdeI-ATG) and Rvdnak2 (stop codon), cloned into pET16b; source: E. coli Lemo21, purified (Ni-NTA HisTrap, Superdex 200); not shown: His-tag, N-terminal, kept
T3 sequence (P22358 whole entry): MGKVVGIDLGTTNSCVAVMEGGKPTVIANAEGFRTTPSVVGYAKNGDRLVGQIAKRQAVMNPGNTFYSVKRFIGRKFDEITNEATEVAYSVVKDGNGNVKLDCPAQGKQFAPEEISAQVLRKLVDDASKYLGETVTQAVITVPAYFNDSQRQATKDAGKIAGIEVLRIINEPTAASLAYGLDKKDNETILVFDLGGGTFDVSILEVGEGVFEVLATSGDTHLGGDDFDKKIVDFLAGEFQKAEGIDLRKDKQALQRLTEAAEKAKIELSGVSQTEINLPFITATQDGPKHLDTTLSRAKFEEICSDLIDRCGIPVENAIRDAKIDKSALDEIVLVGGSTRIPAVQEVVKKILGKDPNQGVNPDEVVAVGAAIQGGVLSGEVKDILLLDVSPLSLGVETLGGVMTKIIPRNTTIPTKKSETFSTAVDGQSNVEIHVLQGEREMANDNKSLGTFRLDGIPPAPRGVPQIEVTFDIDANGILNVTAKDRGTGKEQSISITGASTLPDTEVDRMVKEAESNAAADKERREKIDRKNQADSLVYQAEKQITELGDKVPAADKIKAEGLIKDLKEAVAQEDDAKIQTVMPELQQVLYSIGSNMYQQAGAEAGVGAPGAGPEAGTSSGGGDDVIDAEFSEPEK

T2 sequence (P22358 whole entry, one chain of several): as the sequence (P22358 whole entry) above

Row | Binder | Kd [1] [nM] | Kd [2] [nM] | Kd [3] [nM] | Kd [4] [nM]
1 | DnaJ Sll1384 from Synechocystis sp. PCC6803, His-tagged (natural protein, UniProt P74157 1-314, looked up, RED-tris-NTA dye on the His-tag (MST only), DnaJ homolog Sll1384 (J domain plus C-terminal TPR domain), Synechocystis sp; PCC6803; gene amplified from total DNA with primers Fwsll1384 (NdeI-ATG) and Rvsll1384 (stop codon), cloned into pET16b; also called DnaJ Sll384; source: E. coli Lemo21, purified (Ni-NTA HisTrap, dialysis); not shown: His-tag, N-terminal, kept) MSSFPIKQGLFNYDVVDHHAILGCPLDATPEEIRKSYLKIAFQLHPDTSKATNEEEQALAAKLFSKFVNPAYEVLSRENDRKEHLLIIQQTVSNLASIGQPSFSSAESQKLQGAKQNLELVYRKVVTPLSKGLYEDFKTVFRKIAQVSEYNLIFLMVKGENASARPVFQTIASSKETVPPVVSGRSPQGPTPTPPINNPPAEELSPFEKSLRRAQENFDRRQYEKAIAELKSALKTDPKNAQAHCLLGMAYLKNNMMTMAKVHIGSAVKLDPNDPKVMAAKKELAKHTSSGSSQEGAKSSQGGFLGGLFGGKKK | 1360 ± 2760 | 1.36 | – | –
2 | B1 | – | – | 31.1 ± 1.17 | 6050 ± 3410
